For 97 substances, amyloid nucleation score results are on record in the supplement of paper PMC12042874.

± gives the uncertainty stated by the source.

This data set is described as follows: amyloid nucleation score (Sup35N fusion, yeast selection) (log enrichment); library NNK3; higher = more nucleation; inactive = no reads after selection. The method in brief:
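The nucleation score is the log enrichment of output over input reads, calculated with DiMSum and centred on the mode score of non-aggregating sequences. Sequences with under 100 input reads were excluded. Reads came from Illumina sequencing of plasmid inserts from psi-negative yeast expressing Sup35N fused to peptides of 20 random codons, induced 24 hours with 100 μM copper sulfate and grown 7 days at 30°C without adenine and uracil.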
Regarding GVRLNEIGRIMIRQACGIWE, the amyloid nucleation score result was “inactive”.
The value for GVRNWG was “inactive”.
Consider GVSIGNCTMKGEVDFMVDGK, for which the amyloid nucleation score result is “inactive”.
The value for GVSILCLVLWSMWTLGGESW was “inactive”; that for GVSMERLKFDIVL was “inactive”; that for GVSVMSGQAMYVRKRSALEM was “inactive”.
The value for GVVKRQRLWTVGMNPKIEAW was “inactive”; that for GVVVIPS was 0.933 ± 0.16; that for GVYMQSLLYRCFVFYNYKLD was “inactive”.
The value for GVYSVTCMFYKWEVGWSSSD was “inactive”.
Take GVYYSCAFSTLIKGVNRSTV: the amyloid nucleation score entry is “inactive”.
On to GWHQVTGFMYAIVFVTART, for which the amyloid nucleation score result was “inactive”.
The value for GWNILLNLNIEYSTLYIVNL was 2.44 ± 0.06; that for GWRCCWIIWADAVYE was 3.05 ± 0.075.
With GWVLILKMGYFRSLWNITVL, the amyloid nucleation score result is “inactive”.
For GWWRSFPLQFKSPVYLNRLC, the amyloid nucleation score result was “inactive”.
The value for GYFRWSRAFQLPWNSWSEWQ was “inactive”; that for GYKGR was “inactive”; that for GYKIW was “inactive”.
On to GYMSLLHSKPPFWSNP, for which the amyloid nucleation score is 0.465 ± 0.64.
The value for GYNCALWDVGCLHVFRPYAN was “inactive”; that for GYRKMVTLYVDDGNHVYRFL was “inactive”.
For GYRLRQTSARYIAVEWSWKC, the amyloid nucleation score result was “inactive”.
GYSRG: the amyloid nucleation score entry was “inactive”.
GYSTRYLSV: the amyloid nucleation score result was “inactive”.
In the case of GYTVAKVNFNGWNRL, the amyloid nucleation score stood at 0.453 ± 0.35.
For the substance GYYPLYVTFNSMCEFNIQLQ, the amyloid nucleation score stood at 3.11 ± 0.051.
For HAEPIYFYIVRTLKDG, the amyloid nucleation score result was “inactive”.
The value for HAFFSADSWGNDIELFIYNG was “inactive”; that for HCCNIRRARTQF was “inactive”.
Regarding HCFIDNKMLPYVMCYPDKKR, the amyloid nucleation score entry is “inactive”.
The value for HCSCRNWSLMLGRFFVFVTC was “inactive”.
The value for HCVMNNVAWVLRYTDRRDAL was 1.2 ± 0.091.
The value for HCVTLWLKSYL was “inactive”; that for HDARGLIIFARSHSAESRVR was “inactive”.
HDDISISESIFRRLQIRVIL: the amyloid nucleation score entry is “inactive”.
The value for HEGPKKEGLLAYVKVKRLRR was “inactive”; that for HEQDVAPKCWMYVELNQLGW was 0.688 ± 0.2.
HERILATGVFEMDLGMLVFR: the amyloid nucleation score entry is “inactive”.
The value for HEVAAPRRRHSSMLVAGSAG was “inactive”.
Take HFGYSGFDYYICTRY: the amyloid nucleation score was 0.049 ± 0.27.
On to HFKSESRFTN, for which the amyloid nucleation score result was “inactive”.
HFLFSNQNIRSLNIVFNSRV: the amyloid nucleation score is 2.2 ± 0.073.
The value for HFNEEGAQ was -0.309 ± 1.1; that for HFRIKNTCFKRCLSVESRKY was “inactive”.
The substance HFVVKV had an amyloid nucleation score of 1.27 ± 0.089.
For the substance HGILEWMDCVLTLFTRVGMS, the amyloid nucleation score result was “inactive”.
As to HGPRLLTSKVRFWRKTLRST, the amyloid nucleation score result was “inactive”.
As for HHHRLARTPHDIVPRQKLVV, the amyloid nucleation score entry was “inactive”.
The substance HHIFVFQGLASLNLHTDWML showed an amyloid nucleation score of 1.62 ± 0.1.
For HHKMVISVSSRNQSEKRSDW, the amyloid nucleation score entry is “inactive”.
For the substance HHLSSDVSVLAFCNLPESNR, the amyloid nucleation score stood at 1.21 ± 0.17.
For HIHEDWFFS, the amyloid nucleation score entry was “inactive”.
In the case of HILWHTSSSGELLPMSP, the amyloid nucleation score result is “inactive”.
As for HINDAYTCVMLYMGLTRWTI, the amyloid nucleation score result was “inactive”.
Take HISYNHIGEYVKKSDFECSN: the amyloid nucleation score entry is “inactive”.
In the case of HIVLLKCIQAAETVAGFKW, the amyloid nucleation score result is “inactive”.
The value for HIWGIRKCDPPLTVVMFQSL was “inactive”; that for HKDICLNFSVDHLDVMSQCA was “inactive”; that for HKNEVKWFFFQPGKEMLGGR was “inactive”.
Take HKSINVIRDPGKIVFLTEVI: the amyloid nucleation score entry is “inactive”.
Consider HLCWNRQGNDRRELKSRWRK, for which the amyloid nucleation score result was “inactive”.
In the case of HLDQNLWPKQKQAHTLRTKW, the amyloid nucleation score entry is “inactive”.
For the substance HLLTAVILITIGVNRVTWWG, the amyloid nucleation score entry was “inactive”.
The value for HLSRNVRLS was “inactive”; that for HLSTRLARFPLL was “inactive”.
Regarding HMDSWSYWVIVV, the amyloid nucleation score result was “inactive”.
Substance HNCLVLVCDTCLSVYWNFSS displayed an amyloid nucleation score of 2.83 ± 0.052.
Consider HNDSYRMWGRGPPIVLT, for which the amyloid nucleation score entry was “inactive”.
The value for HNITPESAKVCKVRRCLGSD was 0.619 ± 0.2; that for HNMNR was “inactive”.
Regarding HNPVG, the amyloid nucleation score was 1.23 ± 0.08.
For the substance HNRLSQVTDQLGRLVSRSLR, the amyloid nucleation score entry is “inactive”.
Regarding HNSQLWLVPSVFTKRLCHIN, the amyloid nucleation score result was “inactive”.
Take HPWEARGHPVLHERRNLHSI: the amyloid nucleation score result was “inactive”.
For the substance HQGFE, the amyloid nucleation score result was “inactive”.
On to HQVKVIVCCVTYVVQYVVMM, for which the amyloid nucleation score entry was “inactive”.
In the case of HRHNVGLCCAGDWHLVELGS, the amyloid nucleation score turned out to be 2.06 ± 0.064.
As for HRIRVVENLPHCVLSSRMPL, the amyloid nucleation score entry was “inactive”.
As to HRREMSHCKREPWKSINFYW, the amyloid nucleation score entry is “inactive”.
Regarding HSAVE, the amyloid nucleation score entry is “inactive”.
For the substance HSDMLDYVSMVFFMVIRAGM, the amyloid nucleation score entry was “inactive”.
The value for HSFREYKRVNLYYPFYKDCL was 0.467 ± 0.13; that for HSRGENR was “inactive”.
Regarding HSRLFLGNVTCYWVHEVSLI, the amyloid nucleation score result was “inactive”.
Turning to HSSKSTGTYFGNMS, the amyloid nucleation score result is “inactive”.
HSWNFGVCG yielded an amyloid nucleation score of 0.229 ± 0.2.
The value for HTESTGLSTPWVHL was “inactive”.
Take HTFYFYSMSSGFKRHETTSG: the amyloid nucleation score entry was “inactive”.
HTGMHCTMGESRTSV yielded an amyloid nucleation score of 0.375 ± 0.18.
HTILENFSSLVVMRDGRRNG had an amyloid nucleation score of -0.275 ± 0.52.
The value for HTTIQETFVRIPRLCRWHRR was “inactive”; that for HVGCLIYDIQCETPGSHPSR was “inactive”; that for HVIFFYILAFYNHSMGRTAV was “inactive”.
The value for HVMGANREPF was “inactive”; that for HVNSMA was “inactive”; that for HVTIYGPET was “inactive”.
